Experimental data: article PMC5095700

Tested on: N[C@@H]1[C@@H](O)[C@H](O)[C@@H](CO)O[C@H]1O
Assay: steady-state kinetics of purified variant
Assay type: biochemical, Clostridium acetobutylicum
Conditions: acetyl CoA

| Substance | Km [mM] | kcat [s⁻¹] |
| --- | --- | --- |
| Glucosamine/glucosaminide N-acetyltransferase (GlmA) (Clostridium acetobutylicum ATCC 824; D287N) | 11.8 ± 0.5 | 1.05 ± 0.03 |
| Glucosamine/glucosaminide N-acetyltransferase (GlmA) (Clostridium acetobutylicum ATCC 824; Y297F) | 7.1 ± 0.5 | 1.3 ± 0.06 |
